In patent US20080051336A1 (Janssen / Centocor, published 2008):
Read-outs that look alike come from different tables or passages of the source. Values belong to the binder of their own block, whether it stands above or below them. Ends that are not written are not given here.

Experiments:
rat LGR7 = target: T1, rat LGR7 (rat, UniProt Q6R6I6 1-758); experiment: competition with [125I]R2 (100 pM), COS-7 membranes with rat LGR7
T1 construct: whole, on cells; Tested as membranes of transfected COS-7 cells; also called rat LGR7 receptors
T1 sequence (looked up): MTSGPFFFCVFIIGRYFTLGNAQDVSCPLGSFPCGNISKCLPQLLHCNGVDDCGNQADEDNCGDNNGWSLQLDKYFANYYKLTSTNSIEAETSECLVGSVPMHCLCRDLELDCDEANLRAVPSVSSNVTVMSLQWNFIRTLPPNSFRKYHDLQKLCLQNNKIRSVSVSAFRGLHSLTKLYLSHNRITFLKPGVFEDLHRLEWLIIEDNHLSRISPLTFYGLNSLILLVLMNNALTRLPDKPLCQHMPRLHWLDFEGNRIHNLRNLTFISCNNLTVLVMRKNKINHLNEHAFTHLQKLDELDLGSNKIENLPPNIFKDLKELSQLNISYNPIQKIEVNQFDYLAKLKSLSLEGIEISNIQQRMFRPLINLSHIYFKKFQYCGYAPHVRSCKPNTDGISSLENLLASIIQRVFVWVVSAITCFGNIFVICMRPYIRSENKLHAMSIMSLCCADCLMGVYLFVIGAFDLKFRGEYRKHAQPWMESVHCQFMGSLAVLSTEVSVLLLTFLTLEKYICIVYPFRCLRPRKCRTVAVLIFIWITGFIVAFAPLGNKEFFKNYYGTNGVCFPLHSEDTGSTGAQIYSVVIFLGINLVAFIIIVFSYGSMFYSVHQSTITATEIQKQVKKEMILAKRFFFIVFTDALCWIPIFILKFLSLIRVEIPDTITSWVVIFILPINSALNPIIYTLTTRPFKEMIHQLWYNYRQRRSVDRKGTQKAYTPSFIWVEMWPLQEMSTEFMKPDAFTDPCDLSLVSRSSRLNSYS
Procedure: (§1) The reaction was incubated at room temperature for 1 hour and the membranes were filtered through the 96-well GFC plates (Packard Instrument Co., Meriden, Conn.) using a cell harvester (Packard Instrument Co). The filter was washed with the ice cold washing buffer (50 mM Tris-HCl, pH 7.5). Fifty μl of Microscint 40 (Packard Instrument Co) was added to each well and the plates were counted on a Topcount NTX (Packard Instrument Co). […] The results were analyzed using the PRISM software (GraphPad, San Diego, Calif.).

rat GPCR135 [1] = target: T2, rat GPCR135 (rat, UniProt Q8BGE9 1-472 (mouse entry)); experiment: competition with [125I]R3 (100 pM), COS-7 membranes with rat GPCR135
T2 construct: Also tested as the native receptor in rat brain sections; also called rat GPCR135 receptors
T2 chain: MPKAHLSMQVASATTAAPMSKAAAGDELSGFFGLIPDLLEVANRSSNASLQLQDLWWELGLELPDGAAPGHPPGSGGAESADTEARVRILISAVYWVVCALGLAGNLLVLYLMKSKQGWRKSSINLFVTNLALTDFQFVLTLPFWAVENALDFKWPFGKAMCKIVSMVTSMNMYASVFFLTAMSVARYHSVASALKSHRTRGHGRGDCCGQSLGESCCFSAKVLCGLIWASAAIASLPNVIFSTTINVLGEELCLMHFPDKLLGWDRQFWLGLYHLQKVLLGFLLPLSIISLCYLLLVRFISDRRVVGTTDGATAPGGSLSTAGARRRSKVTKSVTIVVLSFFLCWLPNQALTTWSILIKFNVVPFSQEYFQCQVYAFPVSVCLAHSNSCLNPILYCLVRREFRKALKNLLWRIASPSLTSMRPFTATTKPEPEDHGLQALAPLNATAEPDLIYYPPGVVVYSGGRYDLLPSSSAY
Procedure: as §1

human LGR7 [2] = target: T3, human LGR7 (human, UniProt Q9HBX9 1-757); experiment: cell-based or functional assay
T3 sequence (looked up): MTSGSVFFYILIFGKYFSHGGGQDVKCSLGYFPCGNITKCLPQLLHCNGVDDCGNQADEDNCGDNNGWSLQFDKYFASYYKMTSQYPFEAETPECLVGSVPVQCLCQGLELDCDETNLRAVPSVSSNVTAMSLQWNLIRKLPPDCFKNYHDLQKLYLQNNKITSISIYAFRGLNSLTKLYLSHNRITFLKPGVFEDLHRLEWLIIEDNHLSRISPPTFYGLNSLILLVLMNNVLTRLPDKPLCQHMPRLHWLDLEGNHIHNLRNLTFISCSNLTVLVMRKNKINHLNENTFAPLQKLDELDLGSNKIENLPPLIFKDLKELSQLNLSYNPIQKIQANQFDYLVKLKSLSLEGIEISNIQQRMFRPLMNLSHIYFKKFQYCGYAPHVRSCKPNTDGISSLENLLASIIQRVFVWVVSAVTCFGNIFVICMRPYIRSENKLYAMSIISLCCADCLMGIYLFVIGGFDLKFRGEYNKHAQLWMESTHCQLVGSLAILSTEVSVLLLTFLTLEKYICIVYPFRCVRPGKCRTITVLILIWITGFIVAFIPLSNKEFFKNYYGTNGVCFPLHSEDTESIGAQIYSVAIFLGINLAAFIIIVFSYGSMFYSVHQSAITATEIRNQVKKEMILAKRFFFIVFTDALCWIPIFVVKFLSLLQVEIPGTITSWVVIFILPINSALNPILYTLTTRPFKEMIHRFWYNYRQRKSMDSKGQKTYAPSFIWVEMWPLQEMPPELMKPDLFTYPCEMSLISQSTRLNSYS

human GPCR135 [3] = target: T4, human GPCR135 (human, UniProt Q9NSD7 1-469); experiment: cell-based or functional assay
T4 sequence: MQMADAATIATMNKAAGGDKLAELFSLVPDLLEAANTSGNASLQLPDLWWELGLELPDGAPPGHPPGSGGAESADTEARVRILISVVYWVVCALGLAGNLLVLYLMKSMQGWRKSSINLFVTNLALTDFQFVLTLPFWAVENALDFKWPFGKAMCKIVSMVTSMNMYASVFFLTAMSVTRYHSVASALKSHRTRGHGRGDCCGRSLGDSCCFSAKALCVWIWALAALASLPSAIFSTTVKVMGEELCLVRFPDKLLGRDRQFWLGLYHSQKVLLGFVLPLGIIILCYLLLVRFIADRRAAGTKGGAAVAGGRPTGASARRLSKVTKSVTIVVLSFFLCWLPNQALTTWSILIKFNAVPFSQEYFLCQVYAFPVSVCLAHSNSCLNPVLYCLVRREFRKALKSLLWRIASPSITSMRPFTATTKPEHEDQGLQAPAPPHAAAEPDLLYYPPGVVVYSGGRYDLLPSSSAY

human GPCR142 [4] = target: T5, human GPCR142 (human, UniProt Q8TDU9 1-374); experiment: cell-based or functional assay
T5 sequence (Q8TDU9 whole entry L329S): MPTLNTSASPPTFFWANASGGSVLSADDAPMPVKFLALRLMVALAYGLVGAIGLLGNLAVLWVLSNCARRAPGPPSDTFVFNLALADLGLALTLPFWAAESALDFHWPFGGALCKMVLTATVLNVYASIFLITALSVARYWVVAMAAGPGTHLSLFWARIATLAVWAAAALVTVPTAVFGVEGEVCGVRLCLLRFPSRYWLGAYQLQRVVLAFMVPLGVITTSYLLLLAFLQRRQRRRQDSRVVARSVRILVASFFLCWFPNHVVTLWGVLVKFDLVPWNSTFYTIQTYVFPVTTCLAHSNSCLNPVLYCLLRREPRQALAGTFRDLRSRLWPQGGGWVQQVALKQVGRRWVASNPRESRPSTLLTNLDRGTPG

human LGR7 [5] = target: T3, human LGR7; experiment: cell-based or functional assay; remark: listed apart in the source
human GPCR135 [6] = target: T4, human GPCR135; experiment: discussion of the radioligand binding results
human LGR7 [7] = target: T3, human LGR7; experiment: discussion of the radioligand binding results
human LGR7 [8] = target: T3, human LGR7; experiment: radioligand competition, live COS-7 cells with human LGR7
Procedure: (§2) Different unlabeled peptides were used in the binding assay as the competitors. […] Data represent mean±SEM (n=3).
(§3) Radioligand binding assays for LGR7 and LGR8 were performed using live COS-7 cells transiently transfected with LGR7 or LGR8 expression plasmids in 15-cm culture dishes using LipofectAmine (Invitrogen). Two days after transfection, the transfected cells were detached from the 15-cm culture dished using phosphate buffered saline (PBS) plus 10 mM EDTA, seeded into 96-well opaque poly-D-lysine coated culture plates and used for radioligand binding assays. […] [¹²⁵I]-labeled tracer was added in binding reactions at a final concentration of 100 pM in binding buffer containing DMEM plus 50 mM HEPES and 1% bovine serum albumin. […] The binding mixtures were incubated at room temperature for 1 hour. The unbound radioligand was removed by aspiration of the binding buffer. The cells were washed with PBS. The bound radioligand was counted in a scintillation counter (TopCount/NTX). The results were analyzed using Prism 3.0 program (Graphpad, San Diego, Calif.).

rat GPCR135 [9] = target: T2, rat GPCR135; experiment: radioligand competition, COS-7 membranes; reference rat LGR7
Procedure: as §1

rat GPCR135 [10] = target: T2, rat GPCR135; experiment: competition with [125I]-R3 (100 pM), COS-7 membranes with rat GPCR135
Procedure: as §1

human LGR7 [11] = target: T3, human LGR7; experiment: competition with [125I]-relaxin-3 (100 pM), live COS-7 cells with human LGR7
Procedure: as §2, §3

human GPCR135 [12] = target: T4, human GPCR135; experiment: competition with [125I]-relaxin-3 (100 pM), COS-7 membranes with human GPCR135
Procedure: as §2
(§4) Peptides for competition binding studies were added to the binding mix (final volume: 200 μl) in binding buffer [50 mM Tris-HCl, pH 7.5, 5 mM EDTA, 1% bovine serum albumin, 0.1% protease inhibitor cocktails (Sigma)]. The binding mixtures were incubated at room temperature for 1 hour, filtered through GFC plates (Packard) pre-saturated with 0.3% Polyethylenimine (Sigma), and washed with cold washing buffer (50 mM Tris-HCl, pH 7.5, 5 mM EDTA).

human GPCR142 [13] = target: T5, human GPCR142; experiment: competition with [125I]-relaxin-3 (100 pM), COS-7 membranes with human GPCR142
Procedure: as §2, §4

human LGR8 = target: T6, human LGR8 (human, UniProt Q8WXD0 1-754); experiment: competition with [125I]-INSL3 (100 pM) on live COS-7 cells expressing human LGR8; ND denotes no activity was detected
T6 construct: whole, on cells
T6 sequence (Q8WXD0 whole entry): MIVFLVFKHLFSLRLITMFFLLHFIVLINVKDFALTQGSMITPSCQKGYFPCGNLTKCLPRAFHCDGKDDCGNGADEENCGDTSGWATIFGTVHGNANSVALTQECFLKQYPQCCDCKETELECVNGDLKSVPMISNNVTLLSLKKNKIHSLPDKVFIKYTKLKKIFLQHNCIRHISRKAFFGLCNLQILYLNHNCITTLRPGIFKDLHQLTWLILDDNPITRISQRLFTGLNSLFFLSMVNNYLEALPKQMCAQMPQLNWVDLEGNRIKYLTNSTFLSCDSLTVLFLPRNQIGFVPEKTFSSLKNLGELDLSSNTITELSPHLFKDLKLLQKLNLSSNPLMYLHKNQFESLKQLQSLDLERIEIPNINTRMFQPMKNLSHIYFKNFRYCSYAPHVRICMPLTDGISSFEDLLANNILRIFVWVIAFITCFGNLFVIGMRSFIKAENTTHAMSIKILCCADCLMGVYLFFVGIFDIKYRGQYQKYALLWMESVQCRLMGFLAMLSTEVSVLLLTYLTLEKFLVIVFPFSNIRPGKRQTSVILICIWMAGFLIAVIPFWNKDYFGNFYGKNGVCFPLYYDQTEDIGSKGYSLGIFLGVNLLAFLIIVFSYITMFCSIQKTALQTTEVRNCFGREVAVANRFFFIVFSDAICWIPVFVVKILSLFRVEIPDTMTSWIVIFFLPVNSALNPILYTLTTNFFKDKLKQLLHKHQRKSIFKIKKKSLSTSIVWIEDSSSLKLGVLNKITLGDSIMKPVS
Procedure: as §2, §3

human LGR7 [14] = target: T3, human LGR7; experiment: competition with [125I]-relaxin-3 (100 pM) on live COS-7 cells expressing human LGR7; ND denotes no activity was detected
Procedure: as §2, §3

rat GPCR135 [15] = target: T2, rat GPCR135; experiment: inhibition of [125I]R3/I5 binding sites, quantitative receptor autoradiography, rat cortex
Procedure: (§5) Sections were thawed and dried under a cold air stream and then pre-incubated for 15 min. at room temperature in incubation buffer (20 mM HEPES, pH 7.4, 120 mM NaCl₂, 0.22 mM KH₂PO₄, 1.3 mM CaCl₂, 0.8 mM MgSO₄) by immersing sections in a 400 ml jar. […] After incubation, the excess radioligand was washed off by immersing the slides in the jar containing incubation buffer at 4° C. (3 times 10 min.) followed by a quick immersion in water. […] The imaging plates were scanned using the Fuji Bio-Imaging Analyzer System (BAS-5000, Fuji Medical System, CT) and visualized using ImageGauge V3.12 software (Fuji Medical System, CT).

rat GPCR135 [16] = target: T2, rat GPCR135; experiment: inhibition of [125I]R3/I5 binding sites, quantitative receptor autoradiography, rat olfactory bulb
Procedure: as §5

rat GPCR135 [17] = target: T2, rat GPCR135; experiment: inhibition of [125I]R3/I5 binding sites, quantitative receptor autoradiography, rat superior colliculus
Procedure: as §5

- EC50, ligand stimulated β-galactosidase expression (human LGR7 [2]): ~400 nM
- EC50, inhibition of forskolin stimulated β-galactosidase expression (human GPCR135 [3]): 0.45 nM
- EC50, inhibition of forskolin stimulated β-galactosidase expression (human GPCR142 [4]): 0.91 nM
- EC50, ligand stimulated β-galactosidase expression (human LGR7 [5]): 412 nM
- Kd (human GPCR135 [6]): ~0.5 nM
- Kd (human LGR7 [7]): ~500 nM
- IC50 (human LGR7 [8]): ~500 nM
- fold selectivity over rat LGR7 (rat GPCR135 [9]): 800 fold
- IC50 (rat LGR7): > 400 nM
- IC50 (rat GPCR135 [10]): 0.5 nM
- IC50 (human LGR7 [11]): 724 nM
- IC50 (human GPCR135 [12]): 0.68 nM
- IC50 (human GPCR142 [13]): 1.4 nM
- binding result (human LGR8): no binding
B2: human relaxin-3/INSL5 chimeric polypeptide (R3/I5), mature (ligand)
chain: RAAPYGVRLCGREFIRAVIFTCGGSRWQDLQTLCCTDGCSMTDLSALC
modifications: disulfide (positions not given here); also: two chains (relaxin-3 B-chain, INSL5 A-chain), disulfide-linked, chain break not marked
notes: Mature two-chain peptide: human relaxin-3 B-chain disulfide-linked to human INSL5 A-chain; FLAG tag removed; the tracer is kept under this same molecule; also called R3/5; I5/R3

- EC50, stimulation of β-galactosidase activity (human LGR7 [2]): 1.4 nM
- IC50 (rat GPCR135 [15]): 0.4 nM
- IC50 (rat GPCR135 [16]): 0.3 nM
- IC50 (rat GPCR135 [17]): 0.3 nM
B4: human relaxin-3 (ligand)
chain: RAAPYGVRLCGREFIRAVIFTCGGSRWDVLAGLSSSCCKWGCSKSEISSLC
modifications: disulfide (positions not given here); also: two-chain peptide (A and B chains), disulfide-linked, places not given here
notes: Mature two-chain peptide (A-chain and B-chain, disulfide-linked); It is not clear whether that entry holds the B-chain alone or both chains; also called R3; INSL7

The remaining lines, values behind:

B1: human relaxin (R1) (ligand)
chain: KWKDDVIKLCGRELVRAQIAICGMSTWSRPYVALFEKCCLIGCTKRSLAKYC
notes: also called relaxin-1
- IC50 (rat LGR7): 0.2 nM
- IC50 (rat GPCR135 [1]): > 1000 nM

B3: human relaxin-3/INSL4 chimeric polypeptide (R3/I4), mature (ligand)
chain: RAAPYGVRLCGREFIRAVIFTCGGSRWFDPFCCEVICDDGTSVKLC
modifications: disulfide (positions not given here); also: two chains (relaxin-3 B-chain, INSL4 A-chain), disulfide-linked, chain break not marked
notes: Mature two-chain peptide: human relaxin-3 B-chain disulfide-linked to human INSL4 A-chain; FLAG tag removed
- EC50, inhibition of forskolin stimulated β-galactosidase expression (human GPCR135 [3]): > 1000 nM
- EC50, inhibition of forskolin stimulated β-galactosidase expression (human GPCR142 [4]): > 1000 nM
- IC50 (human GPCR135 [12]): > 1000 nM
- IC50 (human GPCR142 [13]): > 1000 nM
- binding result (human LGR8): no binding
- binding result (human LGR7 [14]): no binding (tested: 1 µM)
